According to patent publication US20150086555A1:
Positions count from the first letter of the chain named.

B1: TCN-553 (5261_C18) (antibody, V domains shown)
VH: QVQVVQSGTEVKKPGSSVKVSCQTSGGRFMSYAITWVRQAPGQGLEWMGGIVPVFGTANYAQKFQGRVTITTDDSTRTAYMELSSLRSEDTAVYYCGFRYGSGYGFDSWGQGTLVTVSS
VL: EIVLTQSPGTLSLSPGERATLSCRASQSVSSSYLAWYQKKPGQAPRLLIYGASTRATGIPDRFTGSGSGTDFTLSISRLEPEDFAVYYCQHFGTSVFTFGGGTKVEIK
B2: TCN-552 (5249_I23) (antibody, V domains shown)
VH: QVQVVQSGAEVKKPGSSVRVSCQASGGTFMNYAIIWVRRAPGQGLEWMGGIIPVFPTPNYAQMFQGRVTISTDESRSTSFLELTNLRYEDTAVYYCARRIYHGGNSGFDFWGQGTLVTVSS
VL: EIVLTQSPATLSLSPGERATLSCRASQSVGNYLAWYQQKPGQAPRLLIYDSSNRAPGIPARFSGSGSGTDFTLTISSLAPEDFAVYYCQQRSKWPPMYSFGHGTKLEIK
B3: TCN-555 (5246_L16) (antibody, V domains shown)
VH: QVQLVQSGAEVKRPGSSVKVSCTASGGIFRKNAISWVRQAPGQGLEWMGGIIAVFNTANYAQKFQNRVKITADESGNTAYMELSSLTSDDTAVYYCASHPKYFYGSGSYPDFWGQGTLVTVSS
VL: QSALTQPRSVSGSPGQSITISCTGGSSDIGASNSVSWYQQHPGKAPKLVIFDVTERPSGVPHRFSGSKSGNTASLTVSGLQPDDEADYFCCAYGGKYLVVFGGGTKVTVL
B4: TCN-563 (5237_B21) (antibody, V domains shown)
VH: B3 VH with V5A, N66G, T87R
VL: B3 VL with I18V, G25S, I29V, F51Y, D83E
B5: TCN-550 (5096_F06) (antibody, V domains shown)
VH: QVQLQESGPGLVKPSETLSLTCTVSGASINSHYWSWIRQPPGKGLEWIGYVYYSGSTTYNPSLKSRVTLSVDTSKNQFSLNLSSVTAADTAFYYCARHPYDVLTGSGDWFDPWGQGTLVTVSS
VL: SYVLTQAPSVSVAPGQTARITCGGNAIGSKKVHWYQHKAGQAPVLVVYDDTDRPSGIPERFSGSNSWSTATLTINRVEAGDEADYYCQVWDFTIDHVVFGGGTKLTVL
B6: TCN-557 (5081_A04) (antibody, V domains shown)
VH: QVQLVQSGAEVKKPGASVKVSCKASGHTFTGYYIHWVRQAPGQGLEWMGWINPDSGATSSAQNFQGRVTMTGDTSSSTAYMELSRLSFDDTAVYYCARVLFTSPFDFWGEGTLVTVSS
VL: QAVVTQEPSLAVSPGGTVTLTCGSSTGAVTRGHYPYWFQQKPGQAPRALIYDSAGNRHSWTPARFSGSLLGGKAALTLSGAQPEDEAEYYCLLSYSGVWVFGGGTKLTVL
B7: TCN-522 (3212_I12) (antibody, V domains shown)
VH: QVQLQQWGAGLLKPSETLSLTCTVSGGSLTDYSWNWIRQPPGKGLEWIGDTLHNGYTNYNPSLRGRVSISIDTSKNQVSLRLTSVTAADTALYYCARGSGGYGGFDYFGKLRTWDFWGQGTLVTVSS
VL: DIQLTQSPSSLSASVGDRVTITCRASQGIRNDLGWYQQKPGNAPKRLIFGASSLQSGVPSRFSGSGSGTEFTLTISSLQPEDFATYYCLQHNSYPYTFGQGTKLEIK

Target: T1, recombinant soluble homotrimeric HA of A/Egypt/3300-NAMRU3/08 (H5N1) (Influenza A virus A/Egypt/3300-NAMRU3/2008(H5N1))
Assay: HA microarray, BCC supernatant
Settings: remark: other sources report otherwise

Binder	Trimeric HA Binding: RLU
B1	18800 RLU
B2	40000 RLU
B3	42700 RLU
B4	27500 RLU

Target: recombinant soluble homotrimeric HA, A/Anhui/1/05 H5N1 (Influenza A virus A/Anhui/1/2005(H5N1))
Assay: microarray, transfection SN IgG, trimeric HA
Settings: remark: other sources report otherwise

Binder	Trimeric HA Binding: RLU
B5	7680 RLU
B1	8550 RLU
B6	20000 RLU
B2	9010 RLU
B3	12200 RLU

Target: recombinant soluble homotrimeric HA, A/California/4/09 H1N1 (Influenza A virus A/California/04/2009(H1N1))
Assay: microarray, transfection SN IgG, trimeric HA
Settings: remark: other sources report otherwise

Binder	Trimeric HA Binding: RLU
B5	628 RLU
B1	23300 RLU
B6	44400 RLU
B2	23500 RLU
B3	20200 RLU

Target: recombinant soluble homotrimeric HA, A/Egypt/3300-NAMRU3/08 H5N1 (Influenza A virus A/Egypt/3300-NAMRU3/2008(H5N1))
Assay: microarray, transfection SN IgG, trimeric HA
Settings: remark: other sources report otherwise

Binder	Trimeric HA Binding: RLU
B5	26800 RLU
B1	19500 RLU
B6	26400 RLU
B2	21200 RLU
B3	20000 RLU

Target: recombinant soluble homotrimeric HA, A/Hong Kong/156/97 H5N1 (Influenza A virus A/Hong Kong/156/97 (H5N1))
Assay: microarray, transfection SN IgG, trimeric HA
Settings: remark: other sources report otherwise

Binder	Trimeric HA Binding: RLU
B5	955 RLU
B1	36300 RLU
B6	27100 RLU
B2	36300 RLU
B3	36300 RLU

Target: recombinant soluble homotrimeric HA, A/Indonesia/5/05 H5N1 (Influenza A virus A/Indonesia/5/2005(H5N1))
Assay: microarray, transfection SN IgG, trimeric HA
Settings: remark: other sources report otherwise

Binder	Trimeric HA Binding: RLU
B5	9000 RLU
B1	31200 RLU
B6	22200 RLU
B2	43400 RLU
B3	33900 RLU

Target: recombinant soluble homotrimeric HA, A/Japan/305/57 H2N2 (Influenza A virus A/Japan/305/1957(H2N2))
Assay: microarray, transfection SN IgG, trimeric HA
Settings: remark: other sources report otherwise

Binder	Trimeric HA Binding: RLU
B5	731 RLU
B1	39800 RLU
B6	27300 RLU
B2	52000 RLU
B3	16700 RLU

Target: recombinant soluble homotrimeric HA, A/Solomon Islands/3/06 H1N1 (Influenza A virus A/Solomon Islands/3/2006(H1N1))
Assay: microarray, transfection SN IgG, trimeric HA
Settings: remark: other sources report otherwise

Binder	Trimeric HA Binding: RLU
B5	758 RLU
B1	49600 RLU
B6	27000 RLU
B2	48600 RLU
B3	44600 RLU

Target: recombinant soluble homotrimeric HA, A/South Carolina/1/18 H1N1 (Influenza A virus A/South Carolina/1/18 (H1N1))
Assay: microarray, transfection SN IgG, trimeric HA
Settings: remark: other sources report otherwise

Binder	Trimeric HA Binding: RLU
B5	1010 RLU
B1	41300 RLU
B6	44900 RLU
B2	37400 RLU
B3	48000 RLU

Target: recombinant soluble homotrimeric HA, A/Vietnam/1203/04 H5N1 (Influenza A virus A/VietNam/1203/2004(H5N1))
Assay: microarray, transfection SN IgG, trimeric HA
Settings: remark: other sources report otherwise

Binder	Trimeric HA Binding: RLU
B5	41900 RLU
B1	19200 RLU
B6	21300 RLU
B2	18500 RLU
B3	19300 RLU

Target: recombinant soluble homotrimeric HA, A/Wisconsin/67/05 H3N2 (Influenza A virus A/Wisconsin/67/2005(H3N2))
Assay: microarray, transfection SN IgG, trimeric HA
Settings: remark: other sources report otherwise

Binder	Trimeric HA Binding: RLU
B5	37800 RLU
B1	25200 RLU
B6	46100 RLU
B2	18500 RLU
B3	14700 RLU

Target: recombinant soluble homotrimeric HA, A/chicken/Vietnam/NCVD-016/08 H5N1 (Influenza A virus A/chicken/Vietnam/NCVD-016/2008(H5N1))
Assay: microarray, transfection SN IgG, trimeric HA
Settings: remark: other sources report otherwise

Binder	Trimeric HA Binding: RLU
B5	1800 RLU
B1	34700 RLU
B6	23300 RLU
B2	34500 RLU
B3	35200 RLU

Target: recombinant soluble homotrimeric HA, A/duck/Yangzhou/02/05 H8N4 (Influenza A virus A/duck/Yangzhou/02/2005(H8N4))
Assay: microarray, transfection SN IgG, trimeric HA
Settings: remark: other sources report otherwise

Binder	Trimeric HA Binding: RLU
B5	4710 RLU
B1	12500 RLU
B6	24000 RLU
B2	15900 RLU
B3	8540 RLU

Target: recombinant soluble homotrimeric HA, A/northern shoveler/California/HKWF115/07 H6N4 (Influenza A virus A/northern shoveler/California/HKWF115/2007(H6N1))
Assay: microarray, transfection SN IgG, trimeric HA
Settings: remark: other sources report otherwise

Binder	Trimeric HA Binding: RLU
B5	2300 RLU
B1	32500 RLU
B6	49600 RLU
B2	43900 RLU
B3	28700 RLU

Target: recombinant homotrimeric HA A/duck/Yangzhou/02/05 H8N4 (Influenza A virus A/duck/Yangzhou/02/2005(H8N4))
Assay: protein microarray, purified IgG, trimeric HA
Settings: remark: other sources report otherwise

Binder	Trimeric HA Binding: RLU
B5	256 RLU
B6	27200 RLU
B3	375 RLU

Target: recombinant homotrimeric HA A/swine/Ontario/01911-2/99 H4N6 (Influenza A virus A/Swine/Ontario/01911-2/99 (H4N6))
Assay: protein microarray, purified IgG, trimeric HA
Settings: remark: other sources report otherwise

Binder	Trimeric HA Binding: RLU
B6	19200 RLU
B7	73 RLU

Target: recombinant soluble homotrimeric HA of A/Anhui/1/05 (H5N1) (Influenza A virus A/Anhui/1/2005(H5N1))
Assay: trimeric HA microarray, transfection supernatant set 2
Settings: remark: other sources report otherwise

Binder	Trimeric HA Binding: RLU
B7	2030 RLU
B4	1570 RLU

Target: recombinant soluble homotrimeric HA of A/California/4/09 (H1N1) (Influenza A virus A/California/04/2009(H1N1))
Assay: as above
Settings: remark: other sources report otherwise

Binder	Trimeric HA Binding: RLU
B7	37500 RLU
B4	21200 RLU

Target: T1, recombinant soluble homotrimeric HA of …
Assay: as above
Settings: remark: other sources report otherwise

Binder	Trimeric HA Binding: RLU
B7	55400 RLU
B4	23900 RLU

Target: recombinant soluble homotrimeric HA of A/Indonesia/5/05 (H5N1) (Influenza A virus A/Indonesia/5/2005(H5N1))
Assay: as above
Settings: remark: other sources report otherwise

Binder	Trimeric HA Binding: RLU
B7	50500 RLU
B4	47300 RLU

Target: recombinant soluble homotrimeric HA of A/Japan/305/57 (H2N2) (Influenza A virus A/Japan/305/1957(H2N2))
Assay: as above
Settings: remark: other sources report otherwise

Binder	Trimeric HA Binding: RLU
B7	11900 RLU
B4	11200 RLU

Target: recombinant soluble homotrimeric HA of A/Netherlands/219/03 (H7N7) (Influenza A virus A/Netherlands/219/03(H7N7))
Assay: as above
Settings: remark: other sources report otherwise

Binder	Trimeric HA Binding: RLU
B7	2170 RLU
B4	5420 RLU

Target: recombinant soluble homotrimeric HA of A/Solomon Islands/3/06 (H1N1) (Influenza A virus A/Solomon Islands/3/2006(H1N1))
Assay: as above
Settings: remark: other sources report otherwise

Binder	Trimeric HA Binding: RLU
B7	17300 RLU
B4	26500 RLU

Target: recombinant soluble homotrimeric HA of A/South Carolina/1/18 (H1N1) (Influenza A virus A/South Carolina/1/18 (H1N1))
Assay: as above
Settings: remark: other sources report otherwise

Binder	Trimeric HA Binding: RLU
B7	39600 RLU
B4	17800 RLU

Target: recombinant soluble homotrimeric HA of A/Vietnam/1203/04 (H5N1) (Influenza A virus A/VietNam/1203/2004(H5N1))
Assay: as above
Settings: remark: other sources report otherwise

Binder	Trimeric HA Binding: RLU
B7	48200 RLU
B4	31500 RLU

Target: recombinant soluble homotrimeric HA of A/chicken/Vietnam/NCVD-016/08 (H5N1) (Influenza A virus A/chicken/Vietnam/NCVD-016/2008(H5N1))
Assay: as above
Settings: remark: other sources report otherwise

Binder	Trimeric HA Binding: RLU
B7	49300 RLU
B4	36300 RLU
